The supplement of paper PMC11865577

How the values were obtained:
Experiment in all cases: pull-down binding Z-score (relative to library population); higher = stronger binding
Settings in all cases: RNA library: Library-2
TO-N3 (biotin conjugate) = test system: TO-N3 (biotin conjugate)
Procedure, shortened: (§1)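 The RNA library, end-labelled with Cy5 or Cy3, was heat-folded in phosphate/NaCl/KCl buffer, and 1 μg was incubated at 25 °C for 60 min with streptavidin beads carrying 100 pmol of biotin-conjugated small molecule. Hot SDS released the bound RNA, which was then hybridised to a DNA barcode microarray for 20 h at 55.5 °C. For scoring binding, signal from beads alone was subtracted, replicate barcoded probes were averaged after discarding the highest and lowest, and each value was turned into a Z-score from the library mean and standard deviation.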

[1] = test system: TO-3-N3-2 (biotin conjugate)
Procedure, shortened: as §1

[2] = test system: TO-3-N3 (biotin conjugate)
Procedure, shortened: as §1

[3] = test system: TO-N3-2 (biotin conjugate)
Procedure, shortened: as §1

Sequence | pull-down binding Z-score (TO-N3 (biotin conjugate)) | pull-down binding Z-score [1] | pull-down binding Z-score [2] | pull-down binding Z-score [3]
GCACUAUUGCCUUUGGAGGCUGUGUGU [SHAPE_invivo_SARS-CoV-2_Motif_29] | 0.415 | -0.236 | 0.554 | -0.0377
GCACUGACUUGCUUUAGCACUCAAUUUGCUUUUGCUUGUCCUGACGGCGUAAAACACGUCUAUCAGUUACGUGC | 0.281 | -0.234 | 0.239 | -0.056
GCAGACGGGCGAUUUUGUUAAAGCCACUUGC | 0.889 | 0.604 | 0.648 | 1.57
GCAGACUUCAAAGUUUGC | -0.139 | -0.0803 | 0.23 | -1.04
GCAGAGACAGAAGAAACAGCAAACUGUGACUCUUCUUCCUGC | -0.156 | -0.128 | -0.211 | 0.0897
GCAGCAAUAUGC [IAV_invivo_PA_3_Motif_2+IAV_invivo_PA_3_Motif_2] | 0.548 | -0.292 | 0.588 | -0.111
GCAGCCAAACUAAUGGUUGU | 0.574 | 0.228 | 0.609 | 0.312
GCAGGAGCCUUAAAUAAGGCUACUAACAAUGC | 0.0366 | -0.0703 | 0.214 | -0.521
GCAGUAAGUCUGAUACUUACCUG [U1snRNP5ss-9] | 0.947 | 0.129 | 0.85 | 0.892
GCAGUAUAAUUAAUAACUAAUUACUGU [SARS-CoV-2-Conserved-Structured-36_Interval-120-237_Motif_1] | -1.03 | -0.428 | -0.577 | -1.31
GCAGUGGCUAACUAACAUCUUUGGCACUGU | -0.244 | 0.0264 | -0.125 | -0.175
GCAGUUAAAAUGUUUGAUGCUUACGUUAAUACGUUUUCAUCAACUUUUAACGU | -1.37 | -0.145 | -1.09 | -1.09
GCAUACAGUCGCUACAGGAUUGGCAACUAUAAAUUAAACACAGACCAUUCCAGUAGCAGUGACAAUAUUGC [SHAPE_invivo_SARS-CoV-2_Motif_513] | 0.116 | 0.365 | -0.0312 | 0.259
GCAUGAUGUUUCAUCUGC | 0.951 | 0.0512 | 1.18 | -0.496
GCAUUGAUUUAGAUGAGUGGAGUAUGGCUACAUACUACUUAUUUGAUGAGUCUGGUGAGUUUAAAUUGGCUUCACAUAUGU | 0.0261 | -0.04 | -0.215 | 0.256
GCCACAAAGGC [IAV_invivo_PA_3_Motif_6+IAV_invivo_PA_3_Motif_6] | -1.13 | -0.685 | -0.745 | -0.964
GCCACGUAUAAACCAAAUACCUGGUGUAUACGUUGU | 0.17 | -0.377 | 0.576 | -0.78

Sequence | pull-down binding Z-score (TO-N3 (biotin conjugate)) | pull-down binding Z-score [1] | pull-down binding Z-score [2] | pull-down binding Z-score [3]
GCCACUAGUCUCUAGUCAGUGUGUUAAUCUUACAACCAGAACUCAAUUACCCCCUGCAUACACUAAUUCUUUCACACGUGGU [SHAPE_invivo_SARS-CoV-2_Motif_403] | 0.388 | 0.101 | -0.0417 | 0.688
GCCACUUGCGAAUUUUGUGGC | -0.312 | -0.0945 | 0.0442 | -0.997
GCCAGCACAUGGUCCAGCCAAAAACAUGGAGUAUGAUGCUGUUGC [IAV_invivo_PB1_2_Motif_34+IAV_invivo_PB1_2_Motif_34] | -0.304 | -0.346 | -0.602 | 1.43
GCCAGUUGGAGGC [IAV_invivo_PB1_2_Motif_15+IAV_invivo_PB1_2_Motif_15] | -0.233 | -0.201 | -0.0995 | 0.153
GCCAUUGCCGGU [IAV_invivo_HA_4_Motif_15+IAV_invivo_HA_4_Motif_15] | -0.593 | -0.49 | -0.443 | -0.0811
GCCAUUUGUCAUGAUGGAAAAGCACACUUUCCUCGUGAAGGUGUCUUUGUUUCAAAUGGC | -1.39 | -0.592 | -1.16 | -0.949
GCCCCAUUCCUUGAUCGGCUUCGCCGAGAUCAGAAAUCCCUAAGAGGAAGGGGC [IAV_invivo_NS1_NEP_8_Motif_3+IAV_invivo_NS1_NEP_8_Motif_3] | -0.849 | -0.223 | -0.845 | 0.181
GCCCUGGAAUGAUGAUGGGC [IAV_invivo_PB1_2_Motif_20+IAV_invivo_PB1_2_Motif_20] | 0.138 | 0.012 | 0.0132 | 0.65
GCCCUUAUAGGGC [IAV_invivo_NA_6_Motif_5+IAV_invivo_NA_6_Motif_5] | -0.247 | -0.38 | 0.164 | -1.22
GCCGAAUACCAUAAUGAAUCUGGC [SHAPE_invitro_SARS-CoV-2_Motif_29] | -0.479 | -0.529 | -0.597 | -0.0249
GCCGCCACUAGAGGAGCUACUGUAGUAAUUGGAACAAGCAAAUUCUAUGGUGGUUGGC | 0.89 | 0.675 | 0.361 | 1.24
GCCGGAUCAGACCGAGUGAUGGUAUCACCACUGGC [IAV_invivo_PB2_1_Motif_5+IAV_invivo_PB2_1_Motif_5] | -0.143 | -0.146 | -0.361 | 0.505
GCCGGUAGCACACCUUGUAAUGGUGUUGAAGGU [SHAPE_invitro_SARS-CoV-2_Motif_416] | 0.452 | -0.509 | 0.478 | 0.332
GCCUGUGUAAAUGGU [IAV_invivo_NA_6_Motif_8+IAV_invivo_NA_6_Motif_8] | -0.471 | -0.297 | -0.344 | -0.434
GCCUUGAAGCCCCUUUUCUCUAUCUUUAUGCUUUAGUCUACUUCUUGCAGAGUAUAAACUUUGUAAGAAUAAUAAUGAGGC | 0.232 | 0.362 | 0.275 | 0.166
GCGCAGCCAGAAACUGGCAGCGC [mismatch-AA] | -0.528 | -0.365 | -0.468 | -0.354
GCGCAGCCAGAAACUGGCCGCGC [mismatch-AC] | -0.746 | -0.295 | -0.43 | -1
